Results published in IntAct's records for PubMed 22265973.

B1: Synaptotagmin-2 (Rattus norvegicus (Rat)), P29101 (parent)
chain: MRNIFKRNQEPIVAPATTTATMPLAPAAPADNSTESTGTGESQEDMFAKLKDKFFNEINKIPLPPWALIAMAVVAGLLLLTCCFCICKKCCCKKKKNKKEKGKGMKNAMNMKDMKGGQDDDDAETGLTEGEGEGEEEKEPENLGKLQFSLDYDFQANQLTVGVLQAAELPALDMGGTSDPYVKVFLLPDKKKKYETKVHRKTLNPAFNETFTFKVPYQELGGKTLVMAIYDFDRFSKHDIIGEVKVPMNTVDLGQPIEEWRDLQGGEKEEPEKLGDICTSLRYVPTAGKLTVCILEAKNLKKMDVGGLSDPYVKIHLMQNGKRLKKKKTTVKKKTLNPYFNESFSFEIPFEQIQKVQVVVTVLDYDKLGKNEAIGKIFVGSNATGTELRHWSDMLANPRRPIAQWHSLKPEEEVDALLGKNK

Variants of: B1
Conditions: with bxb_clobo botB

Row | Variant | effect of a mutation on the interaction
1 | MRNIFKRNQEPIVAPATTTATMPLAPAAPADNSTESTGTGESQEDMFAKLKDKAFNEINKIPLPPWALIAMAVVAGLLLLTCCFCICKKCCCKKKKNKKEKGKGMKNAMNMKDMKGGQDDDDAETGLTEGEGEGEEEKEPENLGKLQFSLDYDFQANQLTVGVLQAAELPALDMGGTSDPYVKVFLLPDKKKKYETKVHRKTLNPAFNETFTFKVPYQELGGKTLVMAIYDFDRFSKHDIIGEVKVPMNTVDLGQPIEEWRDLQGGEKEEPEKLGDICTSLRYVPTAGKLTVCILEAKNLKKMDVGGLSDPYVKIHLMQNGKRLKKKKTTVKKKTLNPYFNESFSFEIPFEQIQKVQVVVTVLDYDKLGKNEAIGKIFVGSNATGTELRHWSDMLANPRRPIAQWHSLKPEEEVDALLGKNK [F54A] | disrupting interaction

Variants of: B1
Conditions: with bxb_clobo botB
Remark: another data set of the same source

Row | Variant | effect of a mutation on the interaction
2 | MRNIFKRNQEPIVAPATTTATMPLAPAAPADNSTESTGTGESQEDMFAKLKDKLFNEINKIPLPPWALIAMAVVAGLLLLTCCFCICKKCCCKKKKNKKEKGKGMKNAMNMKDMKGGQDDDDAETGLTEGEGEGEEEKEPENLGKLQFSLDYDFQANQLTVGVLQAAELPALDMGGTSDPYVKVFLLPDKKKKYETKVHRKTLNPAFNETFTFKVPYQELGGKTLVMAIYDFDRFSKHDIIGEVKVPMNTVDLGQPIEEWRDLQGGEKEEPEKLGDICTSLRYVPTAGKLTVCILEAKNLKKMDVGGLSDPYVKIHLMQNGKRLKKKKTTVKKKTLNPYFNESFSFEIPFEQIQKVQVVVTVLDYDKLGKNEAIGKIFVGSNATGTELRHWSDMLANPRRPIAQWHSLKPEEEVDALLGKNK [F54L] | disrupting interaction
